# From patent US20100247558A1 (RAMOT AT TEL AVIV UNIVERSITY, published 2010)
# Several values for one entry are separate records, joined by “and”; a condition that tells them apart may be missing. Equal entries are not always repeated. Where no end group is shown, it is not given here.
# What was measured:
# CD4 protein = molecular target: T1, CD4 protein (UniProt P01730 26-394); assay: ELISA: m1 phage captured by anti-M13 antibody, incubated with CD4, probed with anti-CD4 mAb
# T1 construct: also called soluble CD4
# [1] = molecular target: T2, gp120451 (gp120 of HIV-1 isolate 451) (HIV-1 isolate 451); assay: quantitative ELISA (FIG. 7)
# T2 construct: also called soluble monomeric gp120451
binder,measurement,setting,value
"CDRRDLPQWAKREC (not fully specified (C-terminus); cysteine pairing not given here; also: fused to N terminus of phage pVIII (mosaic fth1 phage), Tested as a fusion to protein 8 on filamentous phage (fth1 vector, mosaic phage); 12mer flanked by constant cysteines; not shown: fd phage protein 8 (pVIII) display carrier at the peptide's C end) [m1 peptide (phage-displayed)]",binding result,CD4 protein,no binding
same,Kd,[1],69 nM and 69.2 nM
